Measured values published in patent US7265263B1, “Potato transcription factors, methods of use thereof, and a method for enhancing tuber development” (Iowa State University Research Foundation, Inc., priority 2002, dated 2007).

T1: GAD:POTH1 fusion protein (Solanum tuberosum)
T1 construct: 35S-methionine labelled, made by in vitro transcription/translation for the immunoprecipitation; also called POTH1:GAD
T1 chain: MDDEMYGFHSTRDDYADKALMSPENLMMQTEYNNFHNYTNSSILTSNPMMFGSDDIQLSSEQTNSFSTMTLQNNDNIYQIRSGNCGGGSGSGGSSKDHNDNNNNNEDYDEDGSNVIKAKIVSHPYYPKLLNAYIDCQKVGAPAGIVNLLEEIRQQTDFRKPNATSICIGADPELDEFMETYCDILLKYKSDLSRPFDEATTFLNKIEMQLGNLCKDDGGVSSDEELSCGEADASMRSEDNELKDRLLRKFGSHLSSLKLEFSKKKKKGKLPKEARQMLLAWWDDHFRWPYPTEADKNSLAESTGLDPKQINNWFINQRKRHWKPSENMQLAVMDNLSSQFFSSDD

T2: GAD protein alone (UniProt P04386 768-881, limits assumed)
T2 construct: Control of the immunoprecipitation
T2 sequence (looked up): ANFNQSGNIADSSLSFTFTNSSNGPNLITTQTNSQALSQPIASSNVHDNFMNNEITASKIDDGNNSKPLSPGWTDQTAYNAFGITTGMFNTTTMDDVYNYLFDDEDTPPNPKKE

T3: StBEL-05 protein from pGEM11Z (in vitro transcription/translation) (Solanum tuberosum)
T3 construct: 35S-methionine labelled prey; also called p11Z-5
T3 chain: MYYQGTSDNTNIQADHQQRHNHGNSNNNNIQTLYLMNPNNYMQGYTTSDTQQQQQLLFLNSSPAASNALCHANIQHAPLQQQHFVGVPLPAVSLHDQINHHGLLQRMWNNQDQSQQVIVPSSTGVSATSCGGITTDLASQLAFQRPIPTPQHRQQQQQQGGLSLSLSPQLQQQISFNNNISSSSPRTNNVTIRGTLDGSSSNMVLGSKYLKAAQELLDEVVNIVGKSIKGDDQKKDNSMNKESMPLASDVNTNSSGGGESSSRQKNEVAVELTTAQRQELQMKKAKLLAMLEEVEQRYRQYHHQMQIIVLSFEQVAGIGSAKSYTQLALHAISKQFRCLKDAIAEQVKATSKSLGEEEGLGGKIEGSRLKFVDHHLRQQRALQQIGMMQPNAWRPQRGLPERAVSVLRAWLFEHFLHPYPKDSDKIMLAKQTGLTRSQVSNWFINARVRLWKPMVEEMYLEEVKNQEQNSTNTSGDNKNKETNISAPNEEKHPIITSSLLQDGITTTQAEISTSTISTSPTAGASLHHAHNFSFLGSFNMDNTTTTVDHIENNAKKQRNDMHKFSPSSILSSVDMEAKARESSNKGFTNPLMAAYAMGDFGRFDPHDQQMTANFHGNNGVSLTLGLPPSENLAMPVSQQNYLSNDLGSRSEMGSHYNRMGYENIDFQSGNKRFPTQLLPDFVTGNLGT

B1: StBEL-30 protein from pGEM11Z (in vitro transcription/translation) (other)
chain: MATYFPSPNNQRDADQTFQYFRQSLPESYSEASNAPENMMVFMNYSSSGAYSDMLTGTSQQQHNCIDIPSIGATPFNTSQQEILSNLGGSQMGIQDFSSWRDSRNEMLADNVFQVAQNVQGQGLSLSLGSNIPSGIGISHVQSQNPNQGGGFNMSFGDGDNSQPKEQRNADYFPPDNPGRDLDAMKGYNSPYGTSSIARTIPSSKYLKAAQYLLDEVVSVRKAIKEQNSKKELTKDSRESDVDSKNISSDTPANGGSNPHESKNNQSELSPTEKQEVQNKLAKLLSMLDEIDRRYRQYYHQMQIVVSSFDVVAGEGAAKPYTALALQTISRHFRCLRDAICDQIRASRRSLGEQDASENSKAIGISRLRFVDHHIRQQRALQQLGMMQQHAWRPQRGLPESSVSVLRAWLFEHFLHPYPKDSDKIMLARQTGLTRSQVSNWFINARVRLWKPMVEEMYKEEAGDAKIDSNSSSDVAPRLATKDSKVEERGELHQNAASEFEQYNSGQILESKSNHEADVEMEGASNAETQSQSGMENQTGEPLPAMDNCTLFQDAFVQSNDRFSEFGSFGSGNVLPNGVSLTLGLQQGEGSNLPMSIETHVSYVPLRADDMYSTAPTTMVPETAEFNCLDSGNRQQPFWLLPSAT
notes: 35S-methionine labelled prey; also called p11Z-30
B2: StBEL-13 protein from pGEM11Z (in vitro transcription/translation) (other)
chain: MVMGGGASSQQLGYAKNHTPNVAESMQLFLMNPQPRSPSPSPPNSTSSTLHMLLPNPSSTSTLQGFPNPAEGSFGQFITWGNGGASAATATHHLNAQNEIGGVNVVESQGLSLSLSSSLQHKAEELQMSGEAGGMMFFNQGGSSTSGQYRYKNLNMGGSGVSPNIHQVHVGYGSSLGVVNVLRNSKYAKAAQELLEEFCSVGRGKLKKTNNKAAANNPNTNPSGANNEASSKDVPTLSAADRIEHQRRKVKLLSMVDEVDRRYNHYCEQMQMVVNSFDLVMGFGTAVPYTALAQKAMSRHFRCLKDAIGAQLKQSCELLGEKDAGNSGLTKGETPRLKMLEQSLRQQRAFHQMGMMEQEAWRPQRGLPERSVNILRAWLFEHFLHPYPSDADKHLLARQTGLSRNQVSNWFINARVRLWKPMVEDMYQQEAKDEDGDGDEKSQSQNSGNNIIAQTPTPNSLTNTSSTNMTTTTAPTTTTALAAAETGTAATPITVTSSKRSQINATDSDPSLVAINSFSENQATFPTNIHDPDDCRRGNLSGDDGTTTHDHMGSTMIRFGTTAGDVSLTLGLRHAGNLPENTHFFG
notes: 35S-methionine labelled prey; also called p11Z-13
B3: pBHD9 construct as used in the in vitro binding protocol (other)
chain: MDDEMYGFHSTRDDYADKALMSPENLMMQTEYNNFHNYTNSSILTSNPMMFGSDDIQLSSEQTNSFSTMTLQNNDNIYQIRSGNCGGGSGSGGSSKDHNDNNNNNEDYDEDGSN
B4: pAD5-1 (StBEL-05 deletion construct in pGAD) (other, not shown: small tags and cut ends)
chain: KNEVAVELTTAQRQELQMKKAKLLAMLEEVEQRYRQYHHQMQIIVLSFEQVAGIGSAKSYTQLALHAISKQFRCLKDAIAEQVKATSKSLGEEEGLGGKIEGSRLKFVDHHLRQQRALQQIGMMQPNAWRPQRGLPERAVSVLRAWLFEHFLHPYPKDSDKIMLAKQTGLTRSQVSNWFINARVRLWKPMVEEMYLEEVKNQEQNSTNTSGDNKNKETNISAPNEEKHPIITSSLLQDGITTTQAEISTSTISTSPTAGASLHHAHNFSFLGSFNMDNTTTTVDHIENNAKKQRNDMHKFSPSSILSSVDMEAKARESSNKGFTNPLMAAYAMGDFGRFDPHDQQMTANFHGNNGVSLTLGLPPSENLAMPVSQQNYLSNDLGSRSEMGSHYNRMGYENIDFQSGNKRFPTQLLPDFVTGNLGT
notes: Lacks the SKY box; residues converted from pAD-05 numbering

What was measured:
POTH1 [1] = test: In vitro binding assay (immunoprecipitation) with POTH1; set-up: species or system Solanum tuberosum; conditions: in vitro transcription/translation, anti-GAD
Method: In vitro binding experiments were performed as described by Ni et al., “PIF3, a Phytochrome-Interacting Factor Necessary for Normal Photoinduced Signal Transduction, is a Novel Basic Helix-Loop-Helix Protein,” Cell 95:657-667 (1998), which is hereby incorporated by reference in its entirety. The full-length sequence for POTH1 was cloned into a pET17b/GAD fusion cassette and transcribed under the control of the T7 promoter. […] Each 50 μl TnT reaction contained 2.0 μg of template plasmid DNA and 20 μmol (20 μCi) of labeled ^35S-methionine. The POTH1:GAD/BEL complex was immunoprecipitated with anti-GAD antibodies (Santa Cruz Biotechnology, Calif.). The proteins from the pellet (one-half the fraction) and for the prey (one-fourth of the reaction volume) were resolved on a 10% SDS-PAGE gel and visualized by autoradiography.

GAD:POTH1 fusion protein [2] = target: T1, GAD:POTH1 fusion protein; test: in vitro translated 35S-labelled proteins, co-immunoprecipitation with anti-GAD antibodies, SDS-PAGE autoradiography
Method: (§1) In vitro binding experiments were performed as described by Ni et al., "PIF3, a Phytochrome-Interacting Factor Necessary for Normal Photoinduced Signal Transduction, is a Novel Basic *Helix*-Loop-Helix Protein," *Cell* 95:657-667 (1998), which is hereby incorporated by reference in its entirety. The full-length sequence for POTH1 was cloned into a pET17b/GAD fusion cassette and transcribed under the control of the T7 promoter. The BEL cDNAs were cloned into pGEM11Z vectors and were transcribed under the control of the T7 promoter. ^35S-methionine labeled bait and prey proteins were synthesized using the TnT in vitro transcription-translation kit (Promega) according to the manufacturer's protocols. Each 50 μl TnT reaction contained 2.0 μg of template plasmid DNA and 20 μmol (20 μCi) of labeled ^35S-methionine. The POTH1:GAD/BEL complex was immunoprecipitated with anti-GAD antibodies (Santa Cruz Biotechnology, Calif.). The proteins from the pellet (one-half the fraction) and for the prey (one-fourth of the reaction volume) were resolved on a 10% SDS-PAGE gel and visualized by autoradiography.

GAD protein alone = target: T2, GAD protein alone; test: in vitro translated 35S-labelled proteins, immunoprecipitation with anti-GAD antibodies
Method: as §1

POTH1 [3] = test: Yeast two-hybrid interaction with POTH1; assay type: binding, Solanum tuberosum; conditions: nutritional selection and lacZ activation, yeast AH109
From the text: (§2) The Matchmaker two-hybrid system (Clontech, Calif.) was used for the yeast two-hybrid screen. Yeast transformation and plasmid rescue into DH5-α E. coli cells were according to the manufacturer's instructions. Full-length POTH1 was cloned into the pBridge (Clontech, Calif.) vector and used as bait to screen the potato (S. tuberosum ‘Desireé’) stolon cDNA library in pAD-GAL4-2.1 (Stratagene, Calif.). Positive interactions were confirmed by cotransforming yeast strain AH109 with each purified pAD plasmid and pBridge: POTH1 and plating on -leucine/-tryptophan (transformation control) and -leucine/-tryptophan/-histidine/-adenine (selection) nutrient medium. Induction of the AH109 reporter gene, lacZ, was measured with a yeast β-galactosidase assay kit (Pierce Chemicals). β-galactosidase activity (FIG. 9B) was determined from a known density of yeast cells and calculated as 1000×OD420/time of color reaction (minutes)×volume of yeast culture (ml)×OD600.
The StBEL-05 deletion constructs were amplified by PCR, then cloned into the vector, pGAD, in-frame with the GAL4 activation domain. POTH1 deletion constructs were amplified by PCR, and cloned into pBridge (Clontech) in-frame with the GAL4 binding domain. Sequencing of selected cDNAs and constructs was performed at the Iowa State University DNA Facility. For deletion analysis, modified constructs of POTH1 were cloned into the pBridge vector for fusion with the DNA-binding domain of GAL4 (FIG. 10A). For StBEL-05, constructs were cloned into the pGAD vector for fusion with the activating domain of GAL4 (FIG. 10B). Deletion constructs were made from both the amino and carboxy termini. These mutants were then tested for interaction in the yeast two-hybrid system by cotransforming into yeast strain AH109 with the corresponding full-length partner (StBEL-05 in pGAL4 or POTH1 in pBridge). All constructs were sequenced to verify that they were in-frame. Positive interactions were verified for lacZ induction by using a β-galactosidase assay (Pierce Chemical Company). For POTH1, seven deletion constructs were tested (FIG. 10A). For the BEL TFs, a fusion construct of StBEL-05 (653 aa of StBEL-05 sequence) and nine deletion constructs were tested (FIG. 10B).

GAD:POTH1 fusion protein [4] = target: T1, GAD:POTH1 fusion protein; test: in vitro transcription/translation, immunoprecipitation assay
Method: as §1

[5] = target: T3, StBEL-05 protein from pGEM11Z (in vitro …); test: in vitro binding protocol (pull-down)
Method: as §1

[6] = target: T4, POTH1 in pBridge (full-length POTH1 fused with the GAL4 DNA-binding domain) (Solanum tuberosum); test: quantitative yeast two-hybrid beta-galactosidase assay
T4 construct: Bait of the yeast two-hybrid screen and partner of the StBEL-05 deletion constructs; also called pBHD; pBridge:POTH1
From the text: as §2, with “*E. coli*” for “E. coli”, “(*S. tuberosum* 'Desireé')” for “(S. tuberosum ‘Desireé’)”, “1000 ×OD420/time” for “1000×OD420/time”, “(ml)×$OD600$.” for “(ml)×OD600.”
The StBEL-05 deletion constructs were amplified by PCR, then cloned into the vector, pGAD, in-frame with the GAL4 activation domain. POTH1 deletion constructs were amplified by PCR, and cloned into pBridge (Clontech) in-frame with the GAL4 binding domain. Sequencing of selected cDNAs and constructs was performed at the Iowa State University DNA Facility. […]

Molecule | pull-down by POTH1 in immunoprecipitation (POTH1 [1]) | binding result (GAD:POTH1 fusion protein [2]) | binding result (GAD protein alone) | interaction with POTH1 (POTH1 [3]) | binding result (GAD:POTH1 fusion protein [4]) | binding result [5] | decrease in the induction of the lacZ marker (beta-galactosidase activity) relative to the full-length construct, StBEL-05 [6]
B1 | pulled down | binds | no binding | showed selective interaction |  |  | 
B2 | pulled down |  | no binding | showed selective interaction | binds |  | 
B3 |  |  |  |  |  | no binding | 
B4 |  |  |  |  |  |  | 55%
